Experimental data as given in the DeepSol protein solubility set.

assay: soluble on expression in E. coli; label from the status in PepcDB or PDB records

Sequence | soluble on expression in E. coli
MQAFEPYIALNSHVRKPVIHISLNPSPKDILSKEQMTVLAQEFMEKFGYGNQPYIVWLHEDIDRKHMHIISVRINEKGEKIDHNREAIRAQNICRDMEVKYGLHSTLGEHSERELLSLQKVDYPKGDVKAQVKHTARTLLECYNCHSLAEYNTLLNLYNVTVYEVRGSVDGKEYYGIMYGALDDDGQQAGTPFKSSKFGKVFGYEALQKKFAATAEKVKRNSLAERARQEIVKAMQDISTKEAFARRLKDADIEVVYRINPEGRLYGITFIDHTNRTVFNGSRLGKAFSANVFNELFNNPDADRTKLIPPPEQDTPRQARETDAEERQEREEYRQQENRGNYQSEPSGSLIDTSALGAIDIFSVLMEDDHTHEYIDPAFRFGHKKKKKRRRRLLEHHHHHH | soluble
MSDLNNAIQGILDDHVARGVVGVSLALCLPGEETSLYQSGYADKFNKMPMTGDHLFRIASCTKSFIATGLHLLVQDGTVDLDEPITRWFPDLPKAAQMPVRILLNHRSGLPDFETSMPMISDKSWTAQEIVDFSFRHGVQKEPWHGMEYSNTGYVLAGMIIAHETGKPYSDHLRSRIFAPLGMKDTWVGTHETFPIEREARGYMHAAADDENPQWDVSGAGDPVDGVWDSTEWFPLSGANAAGDMVSTPRDIVKFLNALFDGRILDQKRLWEMKDNIKPAFFPGSNTVANGHGLLLMRYGSSELKGHLGQIPGHTSIMGRDEETGAALMLIQNSGAGDFESFYLKGVNEPVDRVLEAIKNSRS | soluble
MISVNDFRTGLTISVDNALWQVLDFQHVKPGKGAAFVRSKLRNLRTGSVQEKTFRAGEKVEKAHIENRRMQYLYASGEAHVFMDNGTYEQIELGEKQIERELKFLKENMEVAIMTYQGEVLGVELPNTVELQVTETEPGIKGDTASNVTKPATLETGLVVQVPIFINEGEMLIINTGEGKYVSRA | not soluble
MGHHHHHHSHMGLYHVGQAGLELLTSSDPPTSASQNAEITGVSHRAQSKAHNLQRKLRLSHKSSPPCTYTQHAGGVDSHPLTQDMCVIVNVIARPFDKCNCDIYLGLASELFVVSWVQLTVPYHWIQTLGNVILFCLDTAHRGHCDIAGHCT | not soluble
MGSDKIHHHHHHMDTLTRIRAFIDVVEAEGFSAAARKTGRSKALLSKYVRELEDELGALLLNRTTRQFSMTEAGHTYYRSAADILKEIDNLADLVRENNVGISGKIRITVPRSFTDAEVGQSLIDFALQHPDLSIEIVAEDRFVDLIEEGFDLAIRVTKLEDSGMIARKLADFRSYACASPVFLEKYGPLTHPQDLSKVPVLIDTNTRGHNSLRLRQPDGEAFTVNISGPLEVNSPQTTLRGALSGLGIALLPDFVARRHIESGALISIFEDYMPSGSGIYAVYPHRRYLPAKVRALVDFMHNWFKRNGTCQPKQGTPPSE | not soluble
VLGVTPDTEVVKPTRTQAERTAAMRTKLLDAAVDSLVELGYARTTTQGIARRAGVSRGAQLHHFPTKESLVVAAVEHLVDKRMEEILAADVDAGRGVDVLADAFSGPLFYAALELWVAARTDPALYEATVPLERKVNDALRRGSAEVFGDRFDADTIELSIELVRGLAVSALFRTPEAEQSLRARLLPVWESKVEKS | not soluble
MLERTQVFVDTSYLLASFYNSWETGARAQLEIDLPEVVGVLGRMIEQQLKQPVQRQMWYDGIPDSGPHRYQRALRTCDGVQLRAGQLIEWGERRTQKAVDTRLVADLVLAGVRGQCSDIVLVSGDADMIPGVQEAANAGLRVHLYGFGWDSMSSQLRHCCDTTTILDPREDFAECMQLQVLEGPLPPVVRVKPINDAEPIEDLDFTPVPGVASPFEEVSAKDEKFSPRPSEPAEALSEQVCEAQYEISKHEGQTADSGEITESFEAAEIKVTEFFGEPAAPVAESGVEAPTPEAPTVPEAAKPTPAKPKTPKAEPQKQESPKPGTPKPKAPSPADIPPKAPADTEEHSEVEAEIEDSRPKIPSPSMMAPRRKLRSRYVPLPNEVWATAGFQTPYDVGQQYASWWFENAATSTQRDQAHLLSGGGLPPEIDRPLLQFACETLHEYTLTEAQRVALRDGFHSGIRGVLLNQRDS | soluble
MGSDKIHHHHHHMNLPLNVAPVAAAPASPIVELRQYTLNPGQRETLIALFDREFIESQEATGMTIIGQFRDLDRPDMFVWLRGFDGMDTRKEALAAFYDGPVWAAHRDAANATMTDSDDVLLLKPAWPSAGFDLSGLQRPVSAEQENSSNENHLGGIVVIRIHHLRSGAETEFASRFAAEAALIMKAHGVRLLAAFASEHAQNSFPRLPVRASENVFLSIARFDSAEAHASQEAALAAAPAWQSFLRAVQLDLTKPTETLRLSPTSRSLVGARFRMPR | not soluble
MELPRAFGLLLHPTSLPGPYGVGVLGREARDFLRFLKEAGGRYWQVLPLGPTGYGDSPYQSFSAFAGNPYLIDLRPLAERGYVRLEDPGFPQGRVDYGLLYAWKWPALKEAFRGFKEKASPEEREAFAAFREREAWWLEDYALFMALKGAHGGLPWNRWPLPLRKREEKALREAKSALAEEVAFHAFTQWLFFRQWGALKAEAEALGIRIIGDMPIFVAEDSAEVWAHPEWFHLDEEGRPTVVAGVPPDYFSETGQRWGNPLYRWDVLEREGFSFWIRRLEKALELFHLVRIDHFRGFEAYWEIPASCPTAVEGRWVKAPGEKLFQKIQEVFGEVPVLAEDLGVITPEVEALRDRFGLPGMKVLQFAFDDGMENPFLPHNYPAHGRVVVYTGTHDNDTTLGWYRTATPHEKAFMARYLADWGITFREEEEVPWALMHLGMKSVARLAVYPVQDVLALGSEARMNYPGRPSGNWAWRLLPGELSPEHGARLRAMAEATERL | soluble
MGSDKIHHHHHHMSDVMNNSQIATQDNNLINELKTLIASAKQQAQVQVNAQMTLLYWQLGHRLQEHLLSNQRADYAKQIVKQVAQQLTYEYGKGFNEKSLRKMMQFYQAFPQQEIVSTLSRQLSWSHFVELLPIKAPVAREFYLQMAINDRWSVRTLRNRIDSMLFERTAVSKKPDELIKLELAQLENKQLSANMILKDPYMLDFLGVQDHYFEKDLEDAILRDLQQFLLELGSGFSFIGRQHRVQIGYYDFYIDLLFYNRKLKRLVAIDLKLGNFKAAYKGQMELYLRYLAKYEQEADERPPLGIILCASKDQEQVELLELDKSGIHVAEYLTALPPKEVLQQKLHQAISQNQQRFLAVNALDKDAGIASDAEEK | not soluble
MSLYEWLNALPKAELHLHLEGTLEPELLFALAERNRIALPWNDVETLRKAYAFNNLQEFLDLYYAGADVLRTEQDFYDLTWAYLQKCKAQNVVHVEPFFDPQTHTDRGIPFEVVLAGIRAALRDGEKLLGIRHGLILSFLRHLSEEQAQKTLDQALPFRDAFIAVGLDSSEVGHPPSKFQRVFDRARSEGFLTVAHAGEEGPPEYIWEALDLLKVERIDHGVRAFEDERLMRRLIDEQIPLTVCPLSNTKLCVFDDMSQHTILDMLERGVKVTVNSDDPAYFGGYVTENFHALQQSLGMTEEQARRLAQNSLDARLVKEGHHHHHH | soluble
MGSSHHHHHHGKTIFVIVPTNEEQVAFLEALAKQDELNFDWQNPPTEPGQPVVILIPSDMVEWFLEMLKAKGIPFTVYVEEGGSENLYFQGGGGGGFYVRTPGKRLLEDKVGKDGLSHYSSEFSSRSSSAELKESRASKCSTTTKRSFAENAAGGTADSSKSHRSMPEVVSAQSQHSKTTGSHKRD | soluble
MGWTCERVELLKKFWSEGLSASQIAAQLGGVSRNAVIGKVHRLKLPGRGKTAQGGGRVQKALVGVSSSPVRMRRTPSTVLPTNTASCSVGATALKVDVVVEDVTEVDLPEKSNVVVPISRQLNLLQLSENTCRWPVGDPLSPDFHFCGADSGENSPYCAFHAKIAFQPISERRRIRILEHHHHHH | not soluble
MSLSKQIVILGAGYGGLLAALNVRKYYSKSEAQVTVINQYPTHQIITELHRLAAGNVSEQAVAMPLTKLFKGKDIDLKIATVESFSVDSKEIKLAGGTTLSYDALVVALGSKTAYFGIPGLEENSMVLKSAADANKIYKHVEDRIREYAKTKNEADATIVIGGGGLTGVELVGELADIMPKLAKSHGVNPKEVKLLLVEAGPKILPVLPDHLIERATTSLEARGVTFLTGLPVTNVAGNEIDLKDGQKLVANTFVWTGGVQGNPLIGESGLEVNRGRATVDAYLQSTSHKDVFVAGDSAVVFAPDGRPYPPTAQIAWQMGELIGYNLYAALEGKAFEEFAPVNSGTLASLGRKDAVATIGASNTPLKGLPASLMKEASNVRYLSHIKGLFSLAYEGHHHHHH | soluble
MAHHHHHHSLDSLGAINKIQDFLQKQEYKTLEYNLTTTEVVMENVTAFWEEGFGELFEKAKQNNNNRKTSNGDDSLFFSNFSLLGTPVLKDINFKIERGQLLAVAGSTGAGKTSLLMMIMGELEPSEGKIKHSGRISFCSQFSWIMPGTIKENIIFGVSYDEYRYRSVIKACQLEEDISKFAEKDNIVLGEGGITLSGGQRARISLARAVYKDADLYLLDSPFGYLDVLTEKEIFESCVCKLMANKTRILVTSKMEHLKKADKILILHEGSSYFYGTFSELQNLQPDFSSKLMGCDSFDQFSAERRNSILTETLHRLSLEGDAPVSWTETKKQSFKQTGEFGEKRKNSILNPINSIRKEG | soluble
MGSDKIHHHHHHMDRYRGNAEAVKNLVRGHAVHRDVYVDKEVFDLEMEQLFPNSWVYVGHESQLKDPGDYITSKIGHQPILISRHKNGTIHVLHNRCPHKGVKIASEPCGNTGKFFRCPYHAWSFKTDGSLLAIPLKKGYEGTGFDNDRAKDGLPRVENVHIYRGFIFARLSDTGLSFEDYFGDSLSTIDNMVDRSPKGEVEIIAAPIRYMHTCNWKMLVDNQTDTCHPMVAHESSAGTAVSVWEREKHRFTETPMAVQLYAPFMSPYEFYESAGIRVWPNGHGHSGVSGSIHQDYDDVDGYLEMMVEAYGETRAREILGDIRHNTLYFPNVMVKGPVGILRNFIPVAVDRTLVESWAFRLVGAPDKIYERALMYNRFINAPTSIVGHDDLEMYERAQEGLLSDANEWINLRRLYEEGEPEDVTEVVNGTSERQMRNTFYAWRKFMVQGMEQKQEVSA | not soluble
MSAQVSLELHHRISQFLFHEASLLDDWKFRDWLAQLDEEIRYTMRTTVNAQTRDRRKGVQPPTTWIFNDTKDQLERRIARLETGMAWAEEPPSRTRHLISNCQISETDIPNVFAVRVNYLLYRAQKERDETFYVGTRFDKVRRLEDDNWRLLERDIVLDQAVITSHNLSVLF | soluble
MGSDKIHHHHHHMKLHQLRALVAIHNAGSILEASKLMHITQPALSRSIKELEREVGFTLLQRSHKGMALTEEGKRVIRHANLVVESIRRLQIEAASIQDAALGAVSIGVTSLTAMLDGVDESILAFRRKYPRVKITITDLRPSQILQRLRDGSLDFAITSQQPLSRLSLDWEALGSIKGRVICHASNRQKFSQSLRTLQYAPWISLDELSDQASQFHQLFEANGLRVPQNTVECTSVMMALKLLKNTESLMTISELAVDQGFTYGIDCEFVAMAVQELIPDYPINLVCIDRHSLTAPAQELFHSLRGQVLKQTRPVGSEVVVHA | not soluble
DAHSLWYNFTIIHLPRHGQQWCEVQSQVDQKNFLSYDCGSDKVLSMGHLEEQLYATDAWGKQLEMLREVGQRLRLELADTELEDFTPSGPLTLQVRMSCECEADGYIRGSWQFSFDGRKFLLFDSNNRKWTVVHAGARRMKEKWEKDSGLTTFFKMVSMRDCKSWLRDFLMHRKKRLE | soluble
